Literature values as cited in US20110212858A1, “SYNTHETIC POLY D/L LYSINE FOR CONTROL OF DIRECTION AND RATE OF NEURITE GROWTH AND REGENERATION” (CHILDRENS HOSPITAL LOS ANGELES, priority 2008, published 2011).

Conditions: requires storage at −80° C.

Substance: laminin
- shelf life: limited shelf life
